Data published in paper PMC6686231.

Legend:
[1] = biological target: TbL5 (T. brucei homologue of ribosomal protein L5), endogenous (T. brucei (endogenous in 10×-Ty-TbRrs1 cells)); test: co-IP; whole-cell extract of 10×-Ty-TbRrs1 T. brucei cells, beads with anti-P34/P37, anti-TbL5 or anti-TbRpf2 antibody, anti-Ty Western blot of pellet and supernatant; cellular RNA digested with RNase A
[2] = biological target: TbRpf2 (T. brucei homologue of Rpf2), endogenous (T. brucei (endogenous in 10×-Ty-TbRrs1 cells)); test: as above
[3] = biological target: P34/P37 (trypanosome-specific proteins); test: as above
[4] = biological target: TbL5 (T. brucei homologue of ribosomal protein L5), endogenous (T. brucei (endogenous in 10×-Ty-TbRrs1 cells)); test: co-IP; whole-cell extract of 10×-Ty-TbRrs1 T. brucei cells, beads with anti-P34/P37, anti-TbL5 or anti-TbRpf2 antibody, anti-Ty Western blot of pellet and supernatant; without RNase A
[5] = biological target: TbRpf2 (T. brucei homologue of Rpf2), endogenous (T. brucei (endogenous in 10×-Ty-TbRrs1 cells)); test: as above
[6] = biological target: P34/P37 (trypanosome-specific proteins); test: as above
[7] = biological target: recombinant TbRpf2 (T. brucei); test: co-IP; recombinant TbRrs1 incubated with recombinant P34, TbL5 or TbRpf2, precipitated with anti-P34, anti-L5 or anti-Rpf2 antibody, with or without in vitro-transcribed 5S rRNA; anti-His Western blot of pellet and supernatant
[8] = biological target: recombinant TbL5 (T. brucei); test: as above
[9] = biological target: recombinant P34 (T. brucei); test: as above
[10] = system: SUMO-TbRrs1 (Trypanosoma brucei); test: filter binding; settings: Filter binding with radiolabeled 5S rRNA, triplicate; buffer, salt, pH and temperature not given (as in ref 9)
[11] = system: TbRpf2 (coexpressed, untagged);(His)6-TbRrs1 (coexpressed) (Trypanosoma brucei;Trypanosoma brucei); test: filter binding; settings: coexpressed complex; Filter binding with radiolabeled 5S rRNA, triplicate; buffer, salt, pH and temperature not given (as in ref 9)
[12] = system: (His)6-TbRpf2 (Trypanosoma brucei); test: filter binding; settings: without TbRrs1; text also cites ref 11; Filter binding with radiolabeled 5S rRNA, triplicate; buffer, salt, pH and temperature not given (as in ref 9)

10×-Ty-TbRrs1 (Trypanosoma brucei homologue of regulator of ribosome synthesis 1, Ty-tagged at one copy of the gene) (natural protein)
amount in the pellet relative to pellet plus supernatant [1]: 0.63 | amount in the pellet relative to pellet plus supernatant [2]: 0.58 | amount in the pellet relative to pellet plus supernatant [3]: 0.61 | amount in the pellet relative to pellet plus supernatant [4]: 0.24 | amount in the pellet relative to pellet plus supernatant [5]: 0.02 | amount in the pellet relative to pellet plus supernatant [6]: 0.06

SUMO-TbRrs1 (recombinant) (natural protein)
amount in the pellet relative to pellet plus supernatant, with 5S rRNA [7]: 0.65 | amount in the pellet relative to pellet plus supernatant, without 5S rRNA [7]: 0.53 | amount in the pellet relative to pellet plus supernatant, with 5S rRNA [8]: 0.74 | amount in the pellet relative to pellet plus supernatant, without 5S rRNA [8]: 0.78 | amount in the pellet relative to pellet plus supernatant, with 5S rRNA [9]: 0.71 | amount in the pellet relative to pellet plus supernatant, without 5S rRNA [9]: 0.77

T. brucei 5S rRNA
Kd [10]: 0.0544 µM | Kd [11]: 0.0175 µM | Kd [12]: 0.017 µM
